Source: patent US20230181639A1 (published 2023)

T1: EBV latent membrane protein LMP2 (wild-type epitope, LSK; as in SEQ ID NO: 27) peptide on HLA-A*11:01 (human)
T1 peptide: SSCSSCPLSK

T2: EBV latent membrane protein LMP2 (mutant-type epitope, LTK; as in SEQ ID NO: 28) peptide on HLA-A*11:01 (human)
T2 peptide: SSCSSCPLTK

B1: E149 (TCR, V domains shown)
Valpha: GIQVEQSPPDLILQEGANSTLRCNFSDSVNNLQWFHQNPWGQLINLFYIPSGTKQNGRLSATTVATERYSLLYISSSQTTDSGVYFCAVVDNNDMRFGAGTRLTVKP
Vbeta: DTEVTQTPKHLVMGMTNKKSLKCEQHMGHRAMYWYKQKAKKPPELMFVYSYEKLSINESVPSRFSPECPNSSLLNLHLHALQPEDSALYLCASSPGRWYEQFFGPGTRLTVL
B2: E316 (TCR, V domains shown)
Valpha: AQKITQTQPGMFVQEKEAVTLDCTYDTSDQSYGLFWYKQPSSGEMIFLIYQGSYDEQNATEGRYSLNFQKARKSANLVISASQLGDSAMYFCAMVSGAGGGADGLTFGKGTHLIIQP
Vbeta: DGGITQSPKYLFRKEGQNVTLSCEQNLNHDAMYWYRQDPGQGLRLIYYSQIVNDFQKGDIAEGYSVSREKKESFPLTVTSAQKNPTAFYLCASSIGVGLSNTEAFFGQGTRLTVV
B3: E315 (TCR, V domains shown)
Valpha: KQEVTQIPAALSVPEGENLVLNCSFTDSAIYNLQWFRQDPGKGLTSLLLIQSSQREQTSGRLNASLDKSSGRSTLYIAASQPGDSATYLCAGKTSYDKVIFGPGTSLSVIP
Vbeta: EAGVAQSPRYKIIEKRQSVAFWCNPISGHATLYWYQQILGQGPKLLIQFQNNGVVDDSQLPKDRFSAERLKGVDSTLKIQPAKLEDSAVYLCASSVFPTSVEQYFGPGTRLTVT
B4: E318 (TCR, V domains shown)
Valpha: GENVEQHPSTLSVQEGDSAVIKCTYSDSASNYFPWYKQELGKRPQLIIDIRSNVGEKKDQRIAVTLNKTAKHFSLHITETQPEDSAVYFCAASNRDDKIIFGKGTRLHILP
Vbeta: DAGVIQSPRHEVTEMGQEVTLRCKPISGHNSLFWYRQTMMRGLELLIYFNNNVPIDDSGMPEDRFSAKMPNASFSTLKIQPSEPRDSAVYFCASSLGAGHLWGYTFGSGTRLTVV

Biological target: T1, EBV latent membrane protein LMP2 …
Experiment: multimer staining

Row | Binder | binding result
1 | B1 | recognises
2 | B2 | recognises
3 | B3 | recognises
4 | B4 | recognises

Biological target: T2, EBV latent membrane protein LMP2 …
Experiment: multimer staining

Row | Binder | binding result
5 | B1 | recognises
6 | B2 | recognises
7 | B3 | recognises
8 | B4 | recognises
